Laboratory results taken from patent publication US10975142B2, “Endotrophin neutralization and use thereof” (THE BOARD OF REGENTS OF THE UNIVERSITY OF TEXAS SYSTEM, priority 2013, dated 2021).
Blank lines part the entries; values can stand above or below the molecule they belong to.

Tests used:
[1] = molecular target: T1, native form of endotrophin protein (Mus musculus, UniProt E9PWQ3); experiment: capture of IRD-800 labeled native endotrophin by monoclonal antibodies (Protein G Sepharose pull-down); format: binding; conditions: 2 hours at room temperature, rat-IgG as control
T1 construct: made in house; purified from conditioned media by gel filtration
T1 sequence (E9PWQ3 with tags, fused parts or gaps): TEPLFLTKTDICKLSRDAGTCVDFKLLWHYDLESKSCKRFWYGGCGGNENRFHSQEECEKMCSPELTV
From the text: FIGS. 9A-9C. Generation of endotrophin-specific antibodies. FIG. 9A. HEK-293 cell produced mouse endotrophin was subjected to Western blotting using rabbit anti-mouse endotrophin polyclonal antibody. FIG. 9B. Bacterially produced GST-fused recombinant human endotrophin protein was subjected to western blotting using a rabbit anti-human endotrophin polyclonal antibody. GST protein was used as a negative control. The arrow points at endotrophin. FIG. 9C. […] IRD (infrared dye)-800 labeled native form of endotrophin protein was incubated with either endotrophin monoclonal antibodies, including 4D1, 4F8, 10B6-A11, 10B6-B5, and 10B6-C3 or a rat-IgG for 2 hours at room temperature and subsequently incubated with Protein G Sepharose for 1 hour. The protein-Sepharose complex was separated on a 10-20% Tricine gel after 3 times washing with PBS. Captured endotrophin protein was visualized on a Licor Odyssey Infrared Scanner (Licor Bioscience). Green color represents the IRD800 channel.

Met-1 cells [2] = experiment: Mitotic Index Assay with endotrophin; format: cell-based, mouse; conditions: Met-1, purified ETP, 24 hours
Protocol: (§1) FIGS. 15A-15D. Endotrophin has a limited effect on tumor cell proliferation. FIG. 15A. […] An equal number of cancer cells were freshly isolated from tumor tissues of PyMT (ctrl-cancer cells) and PyMT/endotrophin (ETP^+-cancer cells) and implanted into WT mice (1×10^6 cells/mouse). Tumor volume was determined 1 month post-implantation. Quantitative results are represented as mean±SEM (n=7/group). p=n.s vs. Ctrl-cancer cells by unpaired t-test. FIG. 15B. Met-1 cells were seeded into the 96 well plates and incubated with DMEM/10% FBS/PBS, DMEM/10% FBS/endotrophin, or conditioned media acquired from HEK293 or HEK293/endotrophin-overexpressing cells for 24 hours. Mitotic activity was measured with a Mitotic Index Assay Kit (Active Motif) following the manufacturer's protocol. Paclitaxel (1 μM) was used as a positive control of mitosis. Quantified results are represented as mean±SEM (n=10/group) p=n.s vs. PBS or Ctrl-media by unpaired t-test. FIG. 15C. Human breast cancer cells, MCF7 (0.1×10^5) were plated in the 24 well plates with or without recombinant endotrophin protein and cell numbers were counted over time. The quantification of results is represented as mean±SEM (n=6/group, triplicate). p=n.s vs. PBS by unpaired t-test. FIG. 15D. […] Endomucin positive area was quantified and represented as mean±SEM (multiple images, n=4/group). ***p=0.0008 vs. ctrl by unpaired t-test. Scale bars: 200 μm.

[3] = analysis of ETP homing (IRD-800 labeled ETP, tail vein); format: in vivo, mouse
Protocol: FIGS. 2A-2D: ETP levels in human cancer specimens and its target tissues. (FIG. 2A and FIG. 2B) Human cancer tissues compared with those of benign tissues were immunostained with human ETP-specific polyclonal antibody. Human samples for breast cancer (FIG. 2A) and colon cancer (FIG. 2B) were analyzed. […] (FIG. 2C and FIG. 2D) Whole body in vivo imaging of injected ETP. IRD-800 fluorescence-labeled ETP protein (10 μg) was intravenously injected into WT, 8-week-old PyMT, and 10-week-old PyMT mice by tail vein. (FIG. 2C) ETP levels were visualized by the Licor Infrared Scanner 10-90 minutes after injection. Arrows indicate mammary tumors. L, liver; B, bladder; T, tumor. IgG was used as a negative control. (FIG. 2D) Tissues were excised 2 hours after injection, and ETP-positive fluorescence signals were determined with a Licor Infrared Scanner. Quantified values were normalized to total area and represented as percentage of WT. ***P<0.001.
The homing of ETP in circulation was determined by injecting fluorescently labeled ETP into tail veins. ETP and IgGs were labeled with IRDye800 CW NHS Ester (Licor Bioscience) at a 1:1 molar ratio (dye/protein), according to the manufacturer's instructions. Whole-body fluorescence images were collected on the Odyssey scanner (Licor Bioscience). […] Quantified values were normalized to the total area of each organ.

Met-1 cells [4] = experiment: allografts of Met-1 cells with ETP or PBS and 1D11 or IgG in a Matrigel plug; format: in vivo, mouse; conditions: ETP 20 ng/plug vs PBS
Protocol: FIGS. 6A-6H: ETP augments metastasis through enforcing TGF-β-dependent EMT. (FIG. 6A) E-cadherin immunostaining for tumor tissues from PyMT and PyMT/ETP. (FIG. 6B and FIG. 6C) SBE-luciferase reporter assay. See Supplemental Methods for details. Data represent fold increase (3 independent experiments). **P<0.01, *P<0.05, 2-way ANOVA. pRA-ctrl, empty; pRA-sETP, secretion form; pRA-ETP, intracellular form. (FIGS. 6D-6G) Allografts of Met-1 cells in the presence of either ETP (20 ng/plug) or PBS mixed with 1D11 or IgG (10 μg/plug) within a Matrigel plug. 10 days after implantation, additional 1D11 or IgG (100 μg) was i.p. injected once a week during tumor progression. (FIG. 6D) Tumor volumes represent means±SEM (n=5 per group). *P<0.05, 2-way ANOVA. (FIG. 6E) H&E staining. The ratio of stromal area in tumor tissues was quantified. Data represent mean±SEM (n=5 per group). *P<0.05, unpaired t test. T; tumor and S; stroma. (FIG. 6F) Fibrosis was determined by Masson's Trichrome C stain. Data represent mean±SEM (n=5 per group). **P<0.01, ***P<0.001, unpaired t test. (FIG. 6G) Western blotting for EMT markers E-cadherin, vimentin, and α-SMA. β-actin, loading control. Data represent fold increase (n=5 per group). *P<0.05, **P<0.01, ***P<0.001, unpaired t test. […] 20 days post injection, metastasized cancer cells in the lung tissues were determined by fluorescence intensity. […]

MCF7 = experiment: cell number counts with recombinant endotrophin protein; format: cell-based, human; conditions: MCF-7, purified ETP
Protocol: as §1

MS-1 cells = experiment: MS-1 migration assay (Transwell); format: cell-based, mouse; conditions: ETP protein 1 μg/well, 24 hours
Protocol: FIGS. 7A-7I: ETP acts as a chemokine augmenting tumor growth. […] Tumor volume was determined 1 month after implantation (representative images). Data represent mean±SEM (n=5 per group). ***P<0.001, unpaired t test. (FIG. 7B) In vivo Matrigel bioassay. Matrigel (50 μl) was mixed with ETP (100 ng/plug) or PBS and implanted into WT mice in the presence of IgG, 1D11, or 10B6 (20 μg/plug). 2 days after implantation, plugs were excised and stained for FIG. 7H & FIG. 7E. Scale bars: 100 μm. (FIGS. 7C-7H) Cancer cells were plated in the bottom chamber 1 day prior to seeding MS-1 cells (5×10^5 cells/well) and macrophages (1×10^5 cells/well) atop the membrane chamber in Transwell and incubated for 18-24 hours (FIG. 7C). (FIGS. 7D, 7E, 7F, 7G) Representative images of multiple independent experiments. Scale bars: 100 μm. (FIG. 7H) Quantitation (mean±SEM; n=3 per group). ***P<0.001, […], unpaired t test. (FIG. 7I) MS-1 migration assay. MS-1 cells (5×10^5 cells/well) were plated atop the chamber in Transwell and incubated for 24 hours. […]
Thioglycollate-elicited macrophages or MS-1 in serum-free media were loaded into the upper chamber of a Transwell plate (8 μm pore size; Costar). […] 18 hours later, cells on the underside of the membrane were fixed with 10% formalin, stained with hematoxylin, and counted. […]

ETP = molecular target: T2, ETP (Mus musculus, UniProt E9PWQ3); experiment: in vivo Matrigel bioassay (stromal cell recruitment into plugs); conditions: recombinant ETP 100 ng/plug vs PBS, mammary fat pads of WT mice
T2 sequence (E9PWQ3 with tags, fused parts or gaps limits assumed): T1 sequence (E9PWQ3 with tags, fused parts or gaps)
Protocol: FIGS. 7A-7I: ETP acts as a chemokine augmenting tumor growth. […] Tumor volume was determined 1 month after implantation (representative images). Data represent mean±SEM (n=5 per group). ***P<0.001, unpaired t test. (FIG. 7B) In vivo Matrigel bioassay. Matrigel (50 μl) was mixed with ETP (100 ng/plug) or PBS and implanted into WT mice in the presence of IgG, 1D11, or 10B6 (20 μg/plug). 2 days after implantation, plugs were excised and stained for FIG. 7H & FIG. 7E. Scale bars: 100 μm. (FIGS. 7C-7H) Cancer cells were plated in the bottom chamber 1 day prior to seeding MS-1 cells (5×10^5 cells/well) and macrophages (1×10^5 cells/well) atop the membrane chamber in Transwell and incubated for 18-24 hours (FIG. 7C). (FIGS. 7D, 7E, 7F, 7G) Representative images of multiple independent experiments. Scale bars: 100 μm. (FIG. 7H) Quantitation (mean±SEM; n=3 per group). ***P<0.001, […], unpaired t test. (FIG. 7I) MS-1 migration assay. MS-1 cells (5×10^5 cells/well) were plated atop the chamber in Transwell and incubated for 24 hours. Chemotaxis was set up by following cell migration from DMEM/serum-free to DMEM/2% FBS/PBS or DMEM/2% FBS/ETP protein (1 μg/well). Images are representative of multiple independent experiments. Data represent mean±SEM (n=3 per group). ***P=0.008, unpaired t test. Scale bars: 100 μm.

capture of the native form of endotrophin protein [1]: efficiently capture
B1: 10B6-A11: rat anti-mouse endotrophin monoclonal antibody (antibody, V domains shown)
VH: QVQLQQSGPELAKPGSSVKISCKASGYTFTSYEMHWIKQRPGQGLEWIGYIYPESGSTGYNEKFKGKATLTVDKSSPTAYMQLSSLTPDNSAVYFCTRGLRVLGYVMDVWGHGTSVTVSS
VL: DVQLTQSPSFLSASVGDRVTINCKASQNINKYLNWYQQKLGEAPKRLIYNTNNLQTGIPSRFSGSASGTDYTLTISSLHPEDFATYFCLQHSSLYTFGAGTKLELK

capture of the native form of endotrophin protein [1]: efficiently capture
B2: 10B6-C3: rat anti-mouse endotrophin monoclonal antibody (antibody, V domains shown)
VH: B1 VH
VL: B1 VL

capture of the native form of endotrophin protein [1]: efficiently capture
B3: 10B6-B5: rat anti-mouse endotrophin monoclonal antibody (antibody, V domains shown)
VH: B1 VH
VL: B1 VL

stromal cells recruited into Matrigel plugs (ETP): significantly more stromal cells
B4: ETP: cleaved C5 fragment of the COL6α3 chain, used as recombinant or purified protein (protein)
chain: T1 sequence (E9PWQ3 with tags, fused parts or gaps)
cell proliferation (mitotic activity) (Met-1 cells [2]): not affected | whole body in vivo distribution of labeled ETP ([3]; 10 μg i.v., PyMT mice, compared with control-labeled IgGs): predominantly observed in tumor lesions | ETP fluorescence in excised tissues relative to mammary glands of WT mice ([3]; tissues excised 2 hours after injection): highly enriched in mammary tumor tissues | tumor growth for Met-1 cells (Met-1 cells [4]): significantly enhanced | cell proliferation (cell numbers over time) (MCF7): not affected | MS-1 cells recruited (migration) vs controls (MS-1 cells): twice as many
